Ki data for 3 molecules are collected here from publication PMC3742808 (Nature structural & molecular biology, 2013).

Changes are numbered by the printed parent chain.

Assay [1] addresses recombinant human APC/C^CDH1 (Anaphase Promoting Complex/Cyclosome with CDH1) (human, UniProt Q9H1A4;Q9UJX6;P30260;Q9UJX5;Q9UJX4;Q13042;Q9UJX3;Q9UJX2;Q9UM13;Q9NYG5;Q9BS18;P60 …). Put plainly: enzyme inhibition.
The target of assay [2] is recombinant human APC/C (without CDH1) (human, UniProt Q9H1A4;Q9UJX6;P30260;Q9UJX5;Q9UJX4;Q13042;Q9UJX3;Q9UJX2;Q9UM13;Q9NYG5;Q9BS18;P60 …). Put plainly: enzyme inhibition.

B1: EMI1^DLZT (D-box, Linker, ZBR, Tail; C-terminal APC/C inhibitory domain, residues 305-447) (domain or fragment)
chain: NNNKFSPHASTREYVMFRTPLASVQKSAAQTSLKKDAQTKLSNQGDQKGSTYSRHNEFSEVAKTLKKNESLKACIRCNSPAKYDCYLQRATCKREGCGFDYCTKCLCNYHTTKDCSDGKLLKASCKIGPLPGTKKSKKNLRRL
As for B1, the Ki in assay [1] is at most 2.5 nM.

B2: EMI1^D(Mut)LZT (EMI1^DLZT with alanines in place of Arg322 and Leu325 of the D-box RxxL motif) (domain or fragment)
chain: B1 chain with R18A, L21A
With B2, in assay [2], the Ki was 220 ± 37 nM.

B3: EMI1^ZT (ZBR and Tail; residues 363-447) (domain or fragment)
chain: SEVAKTLKKNESLKACIRCNSPAKYDCYLQRATCKREGCGFDYCTKCLCNYHTTKDCSDGKLLKASCKIGPLPGTKKSKKNLRRL
As to B3, the inhibitory constant (Ki) in assay [2] was 2000 ± 400 nM.
